The target of assay [1] is Factor Xa.
For assay [2], the target named is Factor Xa. In words: modified prothrombinase complex assay (50 pM FXa, 1.35 µM prothrombin).
The target of assay [3] is Factor Xa. Nature of the assay: inhibition of FXa in the prothrombinase complex assay (250 pM FXa, 2.67 µM prothrombin).

What is called Ki is a measure of affinity in units of concentration, obtained from inhibition or displacement. A higher Ki goes with lower affinity. “naturally occurring FXa inhibitor isolated from dilute leech saliva (DLS) of Hirudo medicinalis”: in the assay with Factor Xa [1], the IC50, generation of thrombin from prothrombin by FXa in a prothrombinase complex was 190 pM. Besides, the Ki with Factor Xa [2] came to 120 pM; in the assay with Factor Xa [3], 72 pM.

(Values after patent US5783421.)
